The values below are quoted from earlier work in publication PMC7039207.

As a reminder, the Kd is the free concentration of one partner at which half of the binding sites on the other are occupied at equilibrium, for simple one-to-one binding.

In this series the target is Vinculin tail D5 (Gallus gallus) (UniProt P12003).

For the substance “Vinculin head D1-D4 (from UniProt P12003)”, the Kd was 100 nM.
